T1: APBA3_2, O96018
T1 sequence (O96018 480-570, limits assumed, looked up): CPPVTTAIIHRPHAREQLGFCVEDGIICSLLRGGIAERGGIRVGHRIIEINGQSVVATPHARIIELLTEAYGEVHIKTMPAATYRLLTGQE

T2: CNKSR1, Q969H4
T2 sequence (Q969H4 191-295, limits assumed, looked up): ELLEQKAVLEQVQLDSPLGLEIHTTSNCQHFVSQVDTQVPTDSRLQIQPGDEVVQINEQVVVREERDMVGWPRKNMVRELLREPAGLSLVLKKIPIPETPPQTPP

T3: MPDZ_2, O75970
T3 sequence (O75970 252-347, limits assumed, looked up): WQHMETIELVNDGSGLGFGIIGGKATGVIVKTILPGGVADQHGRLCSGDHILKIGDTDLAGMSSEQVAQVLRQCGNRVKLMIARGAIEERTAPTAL

T4: NHERF1_2, O14745
T4 sequence (O14745 149-244, limits assumed, looked up): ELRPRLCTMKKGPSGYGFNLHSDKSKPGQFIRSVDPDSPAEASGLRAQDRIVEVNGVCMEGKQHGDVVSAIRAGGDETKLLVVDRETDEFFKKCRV

T5: PDZD2_3, O15018
T5 sequence (O15018 581-682, limits assumed, looked up): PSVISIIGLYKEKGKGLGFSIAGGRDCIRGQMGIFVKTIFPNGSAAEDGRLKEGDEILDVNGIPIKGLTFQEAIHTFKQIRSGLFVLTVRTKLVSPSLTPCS

T6: PDZD7_2, Q9H5P4
T6 sequence (Q9H5P4 205-303, limits assumed, looked up): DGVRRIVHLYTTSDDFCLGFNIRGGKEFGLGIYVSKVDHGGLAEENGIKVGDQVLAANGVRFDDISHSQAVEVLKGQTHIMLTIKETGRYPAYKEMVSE

T7: PTPN13_4, Q12923
T7 sequence (Q12923 1783-1878, limits assumed, looked up): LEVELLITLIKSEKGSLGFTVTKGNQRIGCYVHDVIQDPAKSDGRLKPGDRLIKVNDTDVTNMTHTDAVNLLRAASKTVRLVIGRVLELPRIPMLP

T8: PTPN13_5, Q12923
T8 sequence (Q12923 1877-1975, limits assumed, looked up): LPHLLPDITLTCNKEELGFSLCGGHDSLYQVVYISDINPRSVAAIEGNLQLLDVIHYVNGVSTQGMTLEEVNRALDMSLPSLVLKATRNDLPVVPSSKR

T9: SHROOM4, Q9ULL8
T9 sequence (Q9ULL8 5-102, limits assumed, looked up): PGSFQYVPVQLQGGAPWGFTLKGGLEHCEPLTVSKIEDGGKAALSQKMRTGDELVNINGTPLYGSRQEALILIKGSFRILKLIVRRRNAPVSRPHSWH

T10: SNTB2, Q13425
T10 sequence (Q13425 110-208, limits assumed, looked up): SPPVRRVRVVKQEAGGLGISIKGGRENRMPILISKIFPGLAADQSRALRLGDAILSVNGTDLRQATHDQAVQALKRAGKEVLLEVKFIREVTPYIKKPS

T11: TJP3_1, O95049
T11 sequence (O95049 6-103, limits assumed, looked up): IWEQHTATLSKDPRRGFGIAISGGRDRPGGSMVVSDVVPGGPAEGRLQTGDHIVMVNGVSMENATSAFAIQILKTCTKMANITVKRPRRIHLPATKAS

T12: USH1C_2, Q9Y6N9
T12 sequence (Q9Y6N9 206-303, limits assumed, looked up): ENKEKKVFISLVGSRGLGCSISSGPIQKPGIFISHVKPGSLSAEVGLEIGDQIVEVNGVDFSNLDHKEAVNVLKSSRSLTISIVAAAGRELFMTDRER


These binders were tested against T1, APBA3_2, O96018 (assay: holdup assay). Settings: plain residues with an end cap or a label only (N-terminal biotin on a linker: ttds).
Design: key: below the threshold = too weak to quantify, mostly under pKd 3.1 to 4

Binder | pKd
QPGTPTRTAV [MAP2K2, P36507] | below the threshold
MERLRVETDV [ARHGEF16, Q5VV41] | below the threshold

What follows are binders tested against T2, CNKSR1, Q969H4 (assay: holdup assay). Settings: plain residues with an end cap or a label only (N-terminal biotin on a linker: ttds).
Design: key: below the threshold = too weak to quantify, mostly under pKd 3.1 to 4

Binder | pKd
QPGTPTRTAV [MAP2K2, P36507] | 4.07
MERLRVETDV [ARHGEF16, Q5VV41] | 4.16

What follows are binders tested against MAGI1_3, Q96QZ7 (assay: holdup assay). Settings: plain residues with an end cap or a label only (N-terminal biotin on a linker: ttds).
Design: key: below the threshold = too weak to quantify, mostly under pKd 3.1 to 4

Chain of MAGI1_3, Q96QZ7 (Q96QZ7 638-725): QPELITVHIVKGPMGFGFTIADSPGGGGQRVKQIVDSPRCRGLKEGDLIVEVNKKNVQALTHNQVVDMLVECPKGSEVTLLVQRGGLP

Binder | pKd
QPGTPTRTAV [MAP2K2, P36507] | below the threshold
MERLRVETDV [ARHGEF16, Q5VV41] | below the threshold

Each binder was assayed against T3, MPDZ_2, O75970 (assay: holdup assay). Settings: plain residues with an end cap or a label only (N-terminal biotin on a linker: ttds).
Design: key: below the threshold = too weak to quantify, mostly under pKd 3.1 to 4

Binder | pKd
QPGTPTRTAV [MAP2K2, P36507] | below the threshold
MERLRVETDV [ARHGEF16, Q5VV41] | below the threshold

Each binder was assayed against T4, NHERF1_2, O14745 (assay: holdup assay). Settings: plain residues with an end cap or a label only (N-terminal biotin on a linker: ttds).
Design: key: below the threshold = too weak to quantify, mostly under pKd 3.1 to 4

Binder | pKd
QPGTPTRTAV [MAP2K2, P36507] | below the threshold
MERLRVETDV [ARHGEF16, Q5VV41] | below the threshold

What follows are binders tested against NHERF4_3, Q86UT5 (assay: holdup assay). Settings: plain residues with an end cap or a label only (N-terminal biotin on a linker: ttds).
Design: key: below the threshold = too weak to quantify, mostly under pKd 3.1 to 4

Chain of NHERF4_3, Q86UT5 (Q86UT5 325-412): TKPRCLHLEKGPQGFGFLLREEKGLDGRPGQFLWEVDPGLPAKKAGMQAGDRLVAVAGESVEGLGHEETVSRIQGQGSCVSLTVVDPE

Binder | pKd
QPGTPTRTAV [MAP2K2, P36507] | below the threshold
MERLRVETDV [ARHGEF16, Q5VV41] | below the threshold

These binders were tested against O00560 (assay: holdup assay). Settings: plain residues with an end cap or a label only (N-terminal biotin on a linker: ttds).
Design: key: below the threshold = too weak to quantify, mostly under pKd 3.1 to 4

Binder | pKd
QPGTPTRTAV [MAP2K2, P36507] | below the threshold
MERLRVETDV [ARHGEF16, Q5VV41] | below the threshold

The binders below were run against O15021 (assay: holdup assay). Settings: plain residues with an end cap or a label only (N-terminal biotin on a linker: ttds).
Design: key: below the threshold = too weak to quantify, mostly under pKd 3.1 to 4

Binder | pKd
QPGTPTRTAV [MAP2K2, P36507] | below the threshold
MERLRVETDV [ARHGEF16, Q5VV41] | below the threshold

The binders below were run against PARD3B_3, Q8TEW8 (assay: holdup assay). Settings: plain residues with an end cap or a label only (N-terminal biotin on a linker: ttds).
Design: key: below the threshold = too weak to quantify, mostly under pKd 3.1 to 4

Chain of PARD3B_3, Q8TEW8 (Q8TEW8 490-594): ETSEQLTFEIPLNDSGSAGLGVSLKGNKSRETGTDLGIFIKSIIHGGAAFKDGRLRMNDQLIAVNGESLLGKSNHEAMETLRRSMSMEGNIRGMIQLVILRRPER

Binder | pKd
QPGTPTRTAV [MAP2K2, P36507] | below the threshold
MERLRVETDV [ARHGEF16, Q5VV41] | below the threshold

These binders were tested against PDLIM4, P50479 (assay: holdup assay). Settings: plain residues with an end cap or a label only (N-terminal biotin on a linker: ttds).
Design: key: below the threshold = too weak to quantify, mostly under pKd 3.1 to 4

Chain of PDLIM4, P50479 (P50479 1-83): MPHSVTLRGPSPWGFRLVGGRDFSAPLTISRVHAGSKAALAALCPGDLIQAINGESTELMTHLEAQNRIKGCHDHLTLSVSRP

Binder | pKd
QPGTPTRTAV [MAP2K2, P36507] | below the threshold
MERLRVETDV [ARHGEF16, Q5VV41] | below the threshold

What follows are binders tested against T5, PDZD2_3, O15018 (assay: holdup assay). Settings: plain residues with an end cap or a label only (N-terminal biotin on a linker: ttds).
Design: key: below the threshold = too weak to quantify, mostly under pKd 3.1 to 4

Binder | pKd
QPGTPTRTAV [MAP2K2, P36507] | below the threshold
MERLRVETDV [ARHGEF16, Q5VV41] | below the threshold

What follows are binders tested against T6, PDZD7_2, Q9H5P4 (assay: holdup assay). Settings: plain residues with an end cap or a label only (N-terminal biotin on a linker: ttds).
Design: key: below the threshold = too weak to quantify, mostly under pKd 3.1 to 4

Binder | pKd
QPGTPTRTAV [MAP2K2, P36507] | below the threshold
MERLRVETDV [ARHGEF16, Q5VV41] | 4.24

The binders below were run against T7, PTPN13_4, Q12923 (assay: holdup assay). Settings: plain residues with an end cap or a label only (N-terminal biotin on a linker: ttds).
Design: key: below the threshold = too weak to quantify, mostly under pKd 3.1 to 4

Binder | pKd
QPGTPTRTAV [MAP2K2, P36507] | below the threshold
MERLRVETDV [ARHGEF16, Q5VV41] | below the threshold

What follows are binders tested against T8, PTPN13_5, Q12923 (assay: holdup assay). Settings: plain residues with an end cap or a label only (N-terminal biotin on a linker: ttds).
Design: key: below the threshold = too weak to quantify, mostly under pKd 3.1 to 4

Binder | pKd
QPGTPTRTAV [MAP2K2, P36507] | below the threshold
MERLRVETDV [ARHGEF16, Q5VV41] | below the threshold

These binders were tested against Q5TCQ9 (assay: holdup assay). Settings: plain residues with an end cap or a label only (N-terminal biotin on a linker: ttds).
Design: key: below the threshold = too weak to quantify, mostly under pKd 3.1 to 4

Binder | pKd
QPGTPTRTAV [MAP2K2, P36507] | below the threshold
MERLRVETDV [ARHGEF16, Q5VV41] | below the threshold

These binders were tested against Q6ZWJ1 (assay: holdup assay). Settings: plain residues with an end cap or a label only (N-terminal biotin on a linker: ttds).
Design: key: below the threshold = too weak to quantify, mostly under pKd 3.1 to 4

Binder | pKd
QPGTPTRTAV [MAP2K2, P36507] | below the threshold
MERLRVETDV [ARHGEF16, Q5VV41] | below the threshold

The binders below were run against Q92614 (assay: holdup assay). Settings: plain residues with an end cap or a label only (N-terminal biotin on a linker: ttds).
Design: key: below the threshold = too weak to quantify, mostly under pKd 3.1 to 4

Binder | pKd
QPGTPTRTAV [MAP2K2, P36507] | below the threshold
MERLRVETDV [ARHGEF16, Q5VV41] | below the threshold

Each binder was assayed against Q96FS4 (assay: holdup assay). Settings: plain residues with an end cap or a label only (N-terminal biotin on a linker: ttds).
Design: key: below the threshold = too weak to quantify, mostly under pKd 3.1 to 4

Binder | pKd
QPGTPTRTAV [MAP2K2, P36507] | below the threshold
MERLRVETDV [ARHGEF16, Q5VV41] | below the threshold

What follows are binders tested against Q96HC4 (assay: holdup assay). Settings: plain residues with an end cap or a label only (N-terminal biotin on a linker: ttds).
Design: key: below the threshold = too weak to quantify, mostly under pKd 3.1 to 4

Binder | pKd
QPGTPTRTAV [MAP2K2, P36507] | below the threshold
MERLRVETDV [ARHGEF16, Q5VV41] | below the threshold

What follows are binders tested against Q96JB8 (assay: holdup assay). Settings: plain residues with an end cap or a label only (N-terminal biotin on a linker: ttds).
Design: key: below the threshold = too weak to quantify, mostly under pKd 3.1 to 4

Binder | pKd
QPGTPTRTAV [MAP2K2, P36507] | below the threshold
MERLRVETDV [ARHGEF16, Q5VV41] | below the threshold

What follows are binders tested against Q96JY6 (assay: holdup assay). Settings: plain residues with an end cap or a label only (N-terminal biotin on a linker: ttds).
Design: key: below the threshold = too weak to quantify, mostly under pKd 3.1 to 4

Binder | pKd
QPGTPTRTAV [MAP2K2, P36507] | below the threshold
MERLRVETDV [ARHGEF16, Q5VV41] | below the threshold

What follows are binders tested against RGS3, P49796-9 (assay: holdup assay). Settings: plain residues with an end cap or a label only (N-terminal biotin on a linker: ttds).
Design: key: below the threshold = too weak to quantify, mostly under pKd 3.1 to 4

Chain of RGS3, P49796-9 (P49796 other isoform, or with tags, fused parts or gaps): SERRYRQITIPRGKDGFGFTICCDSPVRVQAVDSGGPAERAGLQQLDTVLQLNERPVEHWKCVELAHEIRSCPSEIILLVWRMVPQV

Binder | pKd
QPGTPTRTAV [MAP2K2, P36507] | below the threshold
MERLRVETDV [ARHGEF16, Q5VV41] | below the threshold

What follows are binders tested against T9, SHROOM4, Q9ULL8 (assay: holdup assay). Settings: plain residues with an end cap or a label only (N-terminal biotin on a linker: ttds).
Design: key: below the threshold = too weak to quantify, mostly under pKd 3.1 to 4

Binder | pKd
QPGTPTRTAV [MAP2K2, P36507] | below the threshold
MERLRVETDV [ARHGEF16, Q5VV41] | 4.06

What follows are binders tested against T10, SNTB2, Q13425 (assay: holdup assay). Settings: plain residues with an end cap or a label only (N-terminal biotin on a linker: ttds).
Design: key: below the threshold = too weak to quantify, mostly under pKd 3.1 to 4

Binder | pKd
QPGTPTRTAV [MAP2K2, P36507] | below the threshold
MERLRVETDV [ARHGEF16, Q5VV41] | 4.42

The binders below were run against T11, TJP3_1, O95049 (assay: holdup assay). Settings: plain residues with an end cap or a label only (N-terminal biotin on a linker: ttds).
Design: key: below the threshold = too weak to quantify, mostly under pKd 3.1 to 4

Binder | pKd
QPGTPTRTAV [MAP2K2, P36507] | below the threshold
MERLRVETDV [ARHGEF16, Q5VV41] | below the threshold

These binders were tested against T12, USH1C_2, Q9Y6N9 (assay: holdup assay). Settings: plain residues with an end cap or a label only (N-terminal biotin on a linker: ttds).
Design: key: below the threshold = too weak to quantify, mostly under pKd 3.1 to 4

Binder | pKd
QPGTPTRTAV [MAP2K2, P36507] | below the threshold
MERLRVETDV [ARHGEF16, Q5VV41] | below the threshold
